Paper PMC5775921 (Chemical biology & drug design, 2017)
Ends that are not written are not given here.

Tests used:
HER3 = HER3 (UniProt P21860); experiment: SPR
[1] = molecular target: recombinant extracellular domain of EGFR protein (Homo sapiens, UniProt P00533); experiment: SPR binding to immobilized EGFR extracellular domain; conditions: peptide 0 to 200 μM as analyte

Chain of HER3 (P21860 20-1342): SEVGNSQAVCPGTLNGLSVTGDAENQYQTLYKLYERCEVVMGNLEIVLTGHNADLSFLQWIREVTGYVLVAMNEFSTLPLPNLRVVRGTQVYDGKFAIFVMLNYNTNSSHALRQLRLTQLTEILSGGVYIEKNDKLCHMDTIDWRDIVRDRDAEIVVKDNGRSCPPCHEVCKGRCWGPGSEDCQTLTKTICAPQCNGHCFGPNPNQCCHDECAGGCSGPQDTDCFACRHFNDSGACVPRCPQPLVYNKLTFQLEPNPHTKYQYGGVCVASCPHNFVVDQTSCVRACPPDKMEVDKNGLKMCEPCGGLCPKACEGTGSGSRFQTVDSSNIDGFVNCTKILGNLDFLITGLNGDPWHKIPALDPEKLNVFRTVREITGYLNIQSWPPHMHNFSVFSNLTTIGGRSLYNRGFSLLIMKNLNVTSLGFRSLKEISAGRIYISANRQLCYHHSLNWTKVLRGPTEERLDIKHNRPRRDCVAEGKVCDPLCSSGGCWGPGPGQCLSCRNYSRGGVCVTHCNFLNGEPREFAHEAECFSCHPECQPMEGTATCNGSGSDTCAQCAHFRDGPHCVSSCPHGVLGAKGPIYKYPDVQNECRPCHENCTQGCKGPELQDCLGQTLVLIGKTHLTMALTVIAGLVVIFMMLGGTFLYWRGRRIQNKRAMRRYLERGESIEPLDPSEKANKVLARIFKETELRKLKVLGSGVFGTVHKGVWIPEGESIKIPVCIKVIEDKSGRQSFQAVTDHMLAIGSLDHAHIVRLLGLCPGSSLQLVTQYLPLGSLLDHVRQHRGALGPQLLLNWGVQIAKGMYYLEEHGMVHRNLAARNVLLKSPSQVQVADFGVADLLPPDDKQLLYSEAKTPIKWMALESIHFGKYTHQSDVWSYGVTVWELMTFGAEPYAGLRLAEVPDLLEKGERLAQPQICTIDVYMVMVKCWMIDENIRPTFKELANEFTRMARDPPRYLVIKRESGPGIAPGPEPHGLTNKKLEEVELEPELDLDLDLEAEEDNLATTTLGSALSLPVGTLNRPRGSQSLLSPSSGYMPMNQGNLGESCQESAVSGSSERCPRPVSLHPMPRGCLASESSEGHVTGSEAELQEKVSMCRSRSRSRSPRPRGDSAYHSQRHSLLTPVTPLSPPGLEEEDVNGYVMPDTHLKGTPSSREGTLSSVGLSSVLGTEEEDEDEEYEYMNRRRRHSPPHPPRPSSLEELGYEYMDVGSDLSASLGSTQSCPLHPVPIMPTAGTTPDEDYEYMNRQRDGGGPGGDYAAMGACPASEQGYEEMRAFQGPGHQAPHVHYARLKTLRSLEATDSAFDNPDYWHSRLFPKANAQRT

Substance	Kd (HER3) [µM]	binding to EGFR as seen by SPR [1]
Cyclo.L1.1: Cyclo(K(N3)larllt) (peptide)	50	–
GLARLLT-CONH2 (GLARLLT-NH2) [Peptide L1.6]	–	exhibited binding to the EGFR protein in a concentration-dependent manner
tllarl-CONH2 [Peptide L1.3]	–	exhibited binding to the EGFR protein in a concentration-dependent manner
